Assay results reported in patent US20130266566A1 (AbbVie / Abbott, published 2013).

B4: Antibody 16 IgG1, not germlined (antibody, V domains shown)
VH: QVQLVQSGAEVKKPGSSVKVSCKASGGTFSSYAISWVRQAPGQGLEWMGGIIPTFGTANYAQKFQGRVTITADESTSTAYMELSSLRSEDTAVYYCAREKRQWLEGHFDYWGRGTLVTVSS
VL: DIQMTQSPSTLSASVGDRVTITCRASESIYHSLAWYQQKPGKAPKLLIYKASSLASGVPSRFSGSRSGTEFTLTISSLQPDDFATYYCQQYSNYPLTFGGGTKVEIK
notes: IgG1; also called Ab 16
B11: rabbit PAI-1 (other)
chain: SYPHQPQLTTAGETQQQIQAAMRFKIDEQSTAPALRHLHKELMGPWNKDEISTTDAIFVQRDLKLVQGFMPHFFRLFRTTVKQVDFSDVQRARFIINDWVERHTKGMISDLLGEGAMDQLTRLLLVNALYFNGQWKTPFSKSGTHHRLFHKSDGSTISVPMMAQTNKFNYTEFLTPDGHYYDILELPYHGETLSMFIAAPYEKQVPLSALTNILSAQLISQWKGNMTRVTRLLVLPKFSLESEVDLRAPLENLGMTDMFRPGQADFSNLSDQELLHVSRALQKVKIEVNESGTMASSSTVILVSARMAPEEIIMDRPFLFVVRHNPTGTILFLGQVMEL

Columns and labels:
[1] = target: T1, mouse PAI-1 (mouse, UniProt P22777 24-401); assay: cell-based or functional assay
T1 sequence: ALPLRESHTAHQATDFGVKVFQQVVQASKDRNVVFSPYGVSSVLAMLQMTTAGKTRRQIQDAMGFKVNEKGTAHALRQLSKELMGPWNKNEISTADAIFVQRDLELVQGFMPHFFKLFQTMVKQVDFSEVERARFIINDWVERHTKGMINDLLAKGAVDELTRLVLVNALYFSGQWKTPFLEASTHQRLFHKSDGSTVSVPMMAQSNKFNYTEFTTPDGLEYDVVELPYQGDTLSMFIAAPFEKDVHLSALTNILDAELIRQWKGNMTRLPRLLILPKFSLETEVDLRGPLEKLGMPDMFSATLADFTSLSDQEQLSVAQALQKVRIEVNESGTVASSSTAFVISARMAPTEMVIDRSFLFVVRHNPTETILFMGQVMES

[2] = target: T2, rat PAI-1 (rat, UniProt P20961 24-402); assay: cell-based or functional assay
T2 sequence: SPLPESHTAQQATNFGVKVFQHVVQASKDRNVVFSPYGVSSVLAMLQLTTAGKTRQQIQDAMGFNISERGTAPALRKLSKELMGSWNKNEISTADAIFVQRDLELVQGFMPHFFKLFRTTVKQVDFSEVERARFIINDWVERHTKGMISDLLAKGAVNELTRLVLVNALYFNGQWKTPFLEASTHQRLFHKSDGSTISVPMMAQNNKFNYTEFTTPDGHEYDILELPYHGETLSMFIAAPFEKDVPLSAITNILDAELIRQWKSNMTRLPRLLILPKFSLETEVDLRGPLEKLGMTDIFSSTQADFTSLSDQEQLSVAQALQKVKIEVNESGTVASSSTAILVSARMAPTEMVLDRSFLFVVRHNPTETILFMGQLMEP

[3] = target: T3, cynomolgus PAI-1 (cynomolgus, UniProt P05121 24-402 (human entry), limits assumed); assay: cell-based or functional assay
[4] = target: T4, active human PAI-1, recombinant, wild-type, non-glycosylated (E. coli) (human, UniProt P05121 24-402); assay: cell-based or functional assay
[5] = target: T1, mouse PAI-1; assay: cell-based or functional assay; remark: listed apart in the source
[6] = target: T2, rat PAI-1; assay: cell-based or functional assay; remark: listed apart in the source
[7] = target: T4, active human PAI-1, recombinant, …; assay: cell-based or functional assay; remark: listed apart in the source
[8] = target: T1, mouse PAI-1; assay: competition ELISA, IgG on plate, biotinylated active human PAI-1 against titrated unlabelled competitor
[9] = target: T2, rat PAI-1; assay: as above
[10] = target: B11; assay: as above
[11] = target: T5, latent human PAI-1 (human, UniProt P05121 24-402); assay: as above
T5 construct: also called latent PAI-1

[12] = target: T2, rat PAI-1; assay: cell-based or functional assay; remark: listed apart in the source
[13] = target: T4, active human PAI-1, recombinant, …; assay: cell-based or functional assay; remark: listed apart in the source
[14] = target: T3, cynomolgus PAI-1; assay: cell-based or functional assay; remark: listed apart in the source
[15] = target: T1, mouse PAI-1; assay: cell-based or functional assay; remark: listed apart in the source
[16] = target: B4; assay: competition binding assay: Antibody 16 IgG adsorbed to the plate, biotinylated active human PAI-1 plus a titration of the unlabelled competitor, streptavidin-Europium detection

B1: Antibody 15 scFv (scFv)
chain: QVQLQQSGAEVKKPGSSVKVSCKASGGTFSSYAISWVRQAPGQGLEWMGGIIPTFGTANYAQKFQGRVTITADESTSTAYMELSGLRSEDTAVYYCAREKRQWLEGHFDYWGRGTPVTVSSDIQMAQSPSFLSASIGDRVTITCRASEGIYHNLAWYQQKPGKAPKLLIYRASSLASGAPSRFSGSGSGTDFTLTISSLQPDDFATYYCQQYSNYPLTFGGGTKLEIR
[1]
  Chromogenic (IC50 in nM) mouse: 66.9 nM
  Chromogenic IC50 ratio mouse/human: 9.3 fold
[2]
  Chromogenic (IC50 in nM) rat: 64.2 nM
  Chromogenic IC50 ratio rat/human: 8.9 fold
[3]
  Chromogenic (IC50 in nM) cyno: 2.2 nM
  Chromogenic IC50 ratio cyno/human: 0.3 fold
[4]
  Chromogenic (IC50 in nM) human: 7.2 nM
[5]
  HT-1080 Exo PAI-1 (IC50 in nM) mouse: 37 nM
[6]
  HT-1080 Exo PAI-1 (IC50 in nM) rat: 57 nM
[7]
  HT-1080 Exo PAI-1 (IC50 in nM) human: 36 nM

B2: Antibody 20 IgG1, not germlined (antibody, V domains shown)
VH: QVQLQQSGAEVKKPGSSVKVSCKASGGTFSSYAISWVRQAPGQGLEWMGGIIPTFGTANYAQKFQGRVTITADESTSTAYMELSSLRSEDTAVYYCAREKRQWLEGHFDYWGRGTLVTVSS
VL: DIQMTQSPSTLSASVGDRVTITCRASEGIYHELAWYQQKPGKAPKLLIYRASSLASGVPSRFSGSRSGTEFTLTISSLQPDDFATYYCQQYSDYPLTFGGGTKVEIK
notes: IgG1; also called Ab 20
[1]
  Chromogenic IC50 ratio mouse/human: 0.9 fold
[2]
  Chromogenic IC50 ratio rat/human: 1.8 fold
[3]
  Chromogenic IC50 ratio cyno/human: 0.5 fold
[8]
  IC50 ratio mouse/wt: 7.6 fold
[9]
  IC50 ratio rat/wt: 2.3 fold
[10]
  IC50 ratio rabbit/wt: 9.1 fold
[11]
  IC50 ratio latent/wt: 7.5 fold

B3: Antibody 02 IgG4, not germlined (antibody, V domains shown)
VH: QVQLVQSGAEVKKPGSSVKVSCKASGGTFSSYAISWVRQAPGQGLEWMGGIIPTFGTANYAQKFQGRVTITADESTSTAYMELSSLRSEDTAVYYCAREKRQWLEGHFDYWGRGTLVTVSS
VL: DIQMTQSPSTLSASVGDRVTITCRASEGIYHSLAWYQQKPGKAPKLLIYKASSLASGVPSRFSGSGSGTEFTLTISSLQPDDFATYYCQQYSDYPLTFGGGTKVEIK
notes: IgG4; also called Ab 02
[10]
  IC50 ratio rabbit/wt: 4.8 fold

## B4
[10]
  IC50 ratio rabbit/wt: 7.9 fold

B5: Antibody 01 IgG4, not germlined (antibody, V domains shown)
VH: QVQLVQSGAEVKKPGSSVKVSCKASGGTFSSYAISWVRQAPGQGLEWMGGIIPIFGTANYAQKFQGRVTITADESTSTAYMELSSLRSEDTAVYYCAREKRQWLEGHFDYWGRGTLVTVSS
VL: DIQMTQSPSTLSASVGDRVTITCRASEGIYRSLAWYQQKPGKAPKLLIYKASSLASGVPSRFSGSGSGTEFTLTISSLQPDDFATYYCQQYSNYPLTFGGGTKVEIK
notes: IgG4; also called Ab 01
[10]
  IC50 ratio rabbit/wt: 9 fold

B6: Antibody 27 IgG1, not germlined (antibody, V domains shown)
VH: QVQLQQSGAEVKKPGSSVKVSCKASGGAFSSYAISWVRQAPGQGLEWMGGIIPTFGTANYAQKFQGRVTITADESTSTAYMELSGLRSEDTAVYYCAREKRQWLEGHFDYWGRGTPVTVSS
VL: DIQMTQSPSFLSASIGDRVTITCRASEGIYHNLAWYQQKPGKAPKLLIYRASSLASGAPSRFSGSGSGTDFTLTISSLQPDDFATYYCQQYSNYPLTFGGGTKLEIK
notes: IgG1; also called Ab 27
[1]
  Chromogenic IC50 ratio mouse/human: 3.3 fold
[2]
  Chromogenic IC50 ratio rat/human: 5.4 fold
[8]
  IC50 ratio mouse/wt: 6.1 fold
[9]
  IC50 ratio rat/wt: 1.2 fold
[10]
  IC50 ratio rabbit/wt: 85 fold
[11]
  IC50 ratio latent/wt: 6.8 fold

B7: PICK167_A01-fgl IgG1 (antibody, V domains shown)
VH: QVQLVQSGAEVKKPGSSVKVSCKASGGTFSSYAISWVRQAPGQGLEWMGGIIPTFGTANYAQKFQGRVTITADESTSTAYMELSSLRSEDTAVYYCARERRQWLEGHFDYWGRGTLVTVSS
VL: DIQMTQSPSTLSASVGDRVTITCRASEGIYHNLAWYQQKPGKAPKLLIYKASSLASGVPSRFSGSRSGTEFTLTISSLQPDDFATYYCQQYSNYPLTFGGGTKVEIKR
[12]
  pIC50, HT1080 plasminogen activation assay: 7.64 pIC50
[13]
  pIC50, HT1080 plasminogen activation assay: 7.87 pIC50

B8: Antibody 16 scFv (scFv)
chain: QVQLVQSGAEVKKPGSSVKVSCKASGGTFSSYAISWVRQAPGQGLEWMGGIIPTFGTANYAQKFQGRVTITADESTSTAYMELSSLRSEDTAVYYCAREKRQWLEGHFDYWGRGTLVTVSSDIQMTQSPSTLSASVGDRVTITCRASESIYHSLAWYQQKPGKAPKLLIYKASSLASGVPSRFSGSRSGTEFTLTISSLQPDDFATYYCQQYSNYPLTFGGGTKVEIK
[1]
  Chromogenic (IC50 in nM) mouse: 4.3 nM
[2]
  Chromogenic (IC50 in nM) rat: 5.6 nM
[5]
  HT-1080 Exo PAI-1 (IC50 in nM) mouse: 17.6 nM
[6]
  HT-1080 Exo PAI-1 (IC50 in nM) rat: 52.6 nM
[7]
  HT-1080 Exo PAI-1 (IC50 in nM) human: 16.9 nM
[14]
  IC50, cyno chromogenic assay (FIG. 2b): 0.8 nM
[13]
  IC50, human chromogenic assay (FIG. 2a): 3.6 nM

B9: Antibody 08 scFv (scFv)
chain: QVQLVQSGAEVKKPGSSVKVSCKASGGTFSSYAISWVRQAPGQGLEWMGGIIPTFGTANYAQKFQGRVTITADESTSTAYMELSSLRSEDTAVYYCARERRQWLEGHFDYWGRGTLVTVSSDIQMTQSPSTLSASVGDRVTITCRASEGIYHNLAWYQQKPGKAPKLLIYKASSLASGVPSRFSGSRSGTEFTLTISSLQPDDFATYYCQQYSNYPLTFGGGTKVEIK
[3]
  Chromogenic (IC50 in nM) cyno: 1 nM
  Chromogenic IC50 ratio cyno/human: 0.3 fold
[5]
  HT-1080 Exo PAI-1 (IC50 in nM) mouse: 26.2 nM
[15]
  IC50, mouse chromogenic assay (FIG. 2d): 2.6 nM
[14]
  IC50, cyno chromogenic assay (FIG. 2b): 0.8 nM

B10: Antibody 20 scFv (scFv)
chain: QVQLQQSGAEVKKPGSSVKVSCKASGGTFSSYAISWVRQAPGQGLEWMGGIIPTFGTANYAQKFQGRVTITADESTSTAYMELSSLRSEDTAVYYCAREKRQWLEGHFDYWGRGTLVTVSSDIQMTQSPSTLSASVGDRVTITCRASEGIYHELAWYQQKPGKAPKLLIYRASSLASGVPSRFSGSRSGTEFTLTISSLQPDDFATYYCQQYSDYPLTFGGGTKVEIK
[1]
  Chromogenic (IC50 in nM) mouse: 4.9 nM
[3]
  Chromogenic (IC50 in nM) cyno: 1.3 nM
[5]
  HT-1080 Exo PAI-1 (IC50 in nM) mouse: 18.1 nM
[6]
  HT-1080 Exo PAI-1 (IC50 in nM) rat: 42.4 nM
[7]
  HT-1080 Exo PAI-1 (IC50 in nM) human: 19.1 nM

## B11
[16]
  IC50 (read off the curve): ~3 nM
